Two molecules from paper PMC6726571 can be followed below.

Data set [1] concerns the target T1, SRSF3 (SRp20), recombinant (UniProt P84103 1-164).
T1 sequence: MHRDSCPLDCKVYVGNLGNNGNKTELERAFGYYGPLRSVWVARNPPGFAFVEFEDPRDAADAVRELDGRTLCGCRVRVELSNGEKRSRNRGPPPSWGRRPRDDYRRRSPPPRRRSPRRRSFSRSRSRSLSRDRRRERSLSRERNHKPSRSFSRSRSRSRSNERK
In words: pull-down.

Data set [2] concerns the target T1, SRSF3 (SRp20), recombinant. Description: pull-down. The source holds these as a separate data set.

Like-named read-outs stand apart in the source and are kept apart here.

B1: CPEB2 exon 4 WT RNA, biotinylated (ssRNA)
RNA: GUGAGAUCUAGUUUGCAGUUGCCAGCUUGGGGCUCAGAUUCACUCCAAGAUAGUUGGUGCACUGCAGCCGGAACAUCCAGAAUAGACCAG
On to B1, for which the binding result in data set [1] is “binds”.

B2: CPEB2 exon 4 MUT RNA (CAUCC to GAGUC), biotinylated (ssRNA)
RNA: GUGAGAUCUAGUUUGCAGUUGCCAGCUUGGGGCUCAGAUUCACUCCAAGAUAGUUGGUGCACUGCAGCCGGAAGAGUCAGAAUAGACCAG
Take B2: the binding result in data set [2] is given as “no binding”.
